Experimental findings from the supplement of paper PMC10724198 are described below.

± gives the standard deviation of the averaged measurements.

For data set [1], the system named is Saccharomyces cerevisiae. As to the kind of experiment: protein stability index of tFT-peptide fusion in deletion strain of DAS1 (PSI (0-1 scale)); higher = more stable (slower turnover). How it is done:
(§1)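 MPS profiling in S. cerevisiae of two library types built from selected 12-aa C-degron peptides (IN1, IN2, LN1, LN3, VN2, R1-R5, W1-W3, Atg1 and Rpa12 C-termini): saturation mutagenesis libraries and C-terminal +1 capping libraries (13 aa). Each peptide is fused to the C-terminus of a sfGFP-mCherry timer, after a GGGS linker. Cells are FACS-sorted into 8 mCherry/sfGFP bins and sequenced. PSI runs from 0 (unstable) to 1 (stable), measured once in wild type and in the das1Δ or doa10Δ background.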

Data set [2] concerns Saccharomyces cerevisiae. In words: protein stability index of tFT-peptide fusion in wild type (PSI (0-1 scale)); higher = more stable (slower turnover). As to conditions: genetic background: wild type. How it is done: as §1
Data set [3] deals with Saccharomyces cerevisiae. In words: protein stability index of tFT-peptide fusion (C-terminal peptide) (PSI (0-1 scale)); higher = more stable (slower turnover). As to conditions: temperature: 30 C. How it is done:
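MPS profiling in S. cerevisiae of the yeast C-terminome library: the last 12 aa of each annotated ORF are fused to the C-terminus of a sfGFP-mCherry timer, after a GGGS linker. Cells are FACS-sorted into 8 mCherry/sfGFP bins and deep-sequenced. PSI runs from 0 (unstable) to 1 (stable); wild type and das1Δ backgrounds, two technical replicates each.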

The mark [4] stands for this setting: genetic background: das1 deletion.
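Throughout, for protein stability index of tFT-peptide fusion in deletion strain of DAS1: PSI is a weighted mean of each variant's read distribution over the sorted stability bins, computed only for variants having over 10 reads in total.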
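Throughout, for protein stability index of tFT-peptide fusion in wild type: PSI derived as read-weighted mean over the 8 sorting bins, only variants exceeding 10 total reads kept, mCherry placed adjacent to the peptide and sfGFP distal.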

With AEWRVGLWRGAS, the protein stability index was 0.689 in the data set on Saccharomyces cerevisiae [1] and 0.528 in the data set on Saccharomyces cerevisiae [2].
Regarding AHWRVGLWRGAS, the results for the protein stability index in the data set with Saccharomyces cerevisiae [1] and in the data set on Saccharomyces cerevisiae [2] were 0.688 and 0.43, respectively.
In the same order, the values of ARIRVGLWRGAS are 0.686 and 0.599.
In the same order, the values of ARRRVGLWRGAS are 0.723 and 0.538.
In the same order, the values of ARWLVGLWRGAS are 0.706 and 0.419.
In the case of ARWRDGLWRGAS, the protein stability index with Saccharomyces cerevisiae [1] came to 0.692; in the data set with Saccharomyces cerevisiae [2], 0.651.
The matching figures for ARWRVELWRGAS: 0.665 and 0.203.
The matching figures for ARWRVGAWRGAS: 0.688 and 0.427.
ARWRVGLVRGAS: the protein stability index in the data set on Saccharomyces cerevisiae [1] is 0.663; in the data set on Saccharomyces cerevisiae [2], 0.614.
The matching figures for ARWRVGLWHGAS: 0.665 and 0.624.
The matching figures for ARWRVGLWKGAS: 0.671 and 0.64.
In the same order, the values of ARWRVGLWQGAS are 0.578 and 0.602.
For ARWRVGLWRGASG, the protein stability index amounted to 0.674 in the data set on Saccharomyces cerevisiae [1] and 0.662 with Saccharomyces cerevisiae [2].
With ARWRVGLWRGASP, the figures for the protein stability index with Saccharomyces cerevisiae [1] and in the data set on Saccharomyces cerevisiae [2] were 0.672 and 0.663, respectively.
The matching figures for ARWRVGLWRKAS: 0.672 and 0.1.
In the same order, the values of ARWRVGLWRWAS are 0.694 and 0.0999.
In the same order, the values of ARWRVGSWRGAS are 0.692 and 0.641.
Turning to ARWRVQLWRGAS, the protein stability index with Saccharomyces cerevisiae [1] was determined as 0.689; with Saccharomyces cerevisiae [2] it was 0.287.
With VHDDSRCYTHFY [BNI4 C-terminal 12 aa], the protein stability index came to 0.7313 ± 0.0033 in the data set on Saccharomyces cerevisiae [3] (setting [4]) and 0.726 ± 0.047 with Saccharomyces cerevisiae [3] (genetic background: wild type).
The matching figures for VHKFGWSLSFSP [POR2 C-terminal 12 aa]: 0.701 ± 0.017 and 0.681 ± 0.038.
In the same order, the values of VKEIPEYSHLID [GCN5 C-terminal 12 aa] are 0.718 ± 0.0055 and 0.697 ± 0.0012.
The matching figures for VKIATSILGKKL [PGS1 C-terminal 12 aa]: 0.68478 ± 0.00021 and 0.687 ± 0.025.
As for VKQMRKKKDKGD [MSB3 C-terminal 12 aa], the protein stability index in the data set on Saccharomyces cerevisiae [3] (setting [4]) amounted to 0.688 ± 0.0093; with Saccharomyces cerevisiae [3] (genetic background: wild type), 0.691 ± 0.042.
For the sequence VKSSMGPAFRLY [RPL1A C-terminal 12 aa], the protein stability index worked out at 0.6853 ± 0.0045 with Saccharomyces cerevisiae [3] (setting [4]) and 0.712 ± 0.046 in the data set with Saccharomyces cerevisiae [3] (genetic background: wild type).
The matching figures for VKTLANEILNII [ECM11 C-terminal 12 aa]: 0.6687 ± 0.0062 and 0.711 ± 0.0092.
In the same order, the values of VLLTILLFIQAY [SPO19 C-terminal 12 aa] are 0.1801 ± 0.0012 and 0.19 ± 0.0039.
In the same order, the values of VLMLETIAYLFS [NFG1 C-terminal 12 aa] are 0.487 ± 0.022 and 0.5059 ± 0.0015.
For “VNNFKMFSNSSV [YIL115W-A C-terminal 12 aa]”, the values for the protein stability index in the data set with Saccharomyces cerevisiae [3] (setting [4]) and with Saccharomyces cerevisiae [3] (genetic background: wild type) were 0.704 ± 0.027 and 0.765 ± 0.045, respectively.
The matching figures for VPDIPPPPALVA [NUP42 C-terminal 12 aa]: 0.632 ± 0.034 and 0.6989 ± 0.0048.
In the same order, the values of VPEEQRIKRRKI [IRC4 C-terminal 12 aa] are 0.705 ± 0.037 and 0.3 ± 0.035.
In the same order, the values of VPKSLYGVTRTR [GAT3 C-terminal 12 aa] are 0.697 ± 0.008 and 0.686 ± 0.032.
In the case of VPYAKILDQCIL [YGL230C C-terminal 12 aa], the protein stability index in the data set on Saccharomyces cerevisiae [3] (setting [4]) was 0.693 ± 0.027; with Saccharomyces cerevisiae [3] (genetic background: wild type), 0.721 ± 0.021.
In the same order, the values of VQNLIAAVMGEL [PNP1 C-terminal 12 aa] are 0.7186 ± 0.002 and 0.664 ± 0.024.
As for VRADDLSTRFNI [RRP43 C-terminal 12 aa], the protein stability index worked out at 0.657 ± 0.0082 in the data set with Saccharomyces cerevisiae [3] (setting [4]) and 0.664 ± 0.017 in the data set with Saccharomyces cerevisiae [3] (genetic background: wild type).
